According to doi:10.1101/2021.06.06.447285 (bioRxiv, 2021):

Target: the molecule itself
Test: native gel or EMSA + other: dynamic light scattering + other: negative-stain TEM

B1: Encapsulin from Thermotoga maritima (natural protein)
chain: MEFLKRSFAPLTEKQWQEIDNRAREIFKTQLYGRKFVDVEGPYGWEYAAHPLGEVEVLSDENEVVKWGLRKSLPLIELRATFTLDLWELDNLERGKPNVDLSSLEETVRKVAEFEDEVIFRGCEKSGVKGLLSFEERKIECGSTPKDLLEAIVRALSIFSKDGIEGPYTLVINTDRWINFLKEEAGHYPLEKRVEECLRGGKIITTPRIEDALVVSERGGDFKLILGQDLSIGYEDREKDAVRLFITETFTFQVVNPEALILLKF
**Q.** Does B1 bind?
**A.** Result: binds
